Laboratory results published in the supplement of paper PMC5998384.

Key:
HeLa Kyoto [1] = assay: thermal stability score vs G1/S (z-score of summed log2 fold changes over temperatures); higher = more thermally stable than in G1/S
HeLa Kyoto [2] = assay: solubility change mitosis vs G1/S (difference of NP-40 vs SDS log2 ratios) (log2 ratio difference); higher = more soluble in mitosis
HeLa Kyoto [3] = assay: melting temperature (median over replicates), in situ; higher = more thermally stable
HeLa Kyoto [4] = assay: solubility in G1/S (NP-40 vs SDS abundance) (log2 ratio); higher = more soluble; conditions: cell cycle stage: G1/S
[5] = cell cycle stage: early G1 (4.5 h after nocodazole release)
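For melting temperature (median over replicates), in situ in this document: HeLa Kyoto cells synchronized by double thymidine or nocodazole block, proteins quantified by TMT10plex mass spectrometry, three independent biological replicates.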
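For solubility change mitosis vs G1/S (difference of NP-40 vs SDS log2 ratios) in this document: synchronized HeLa Kyoto cells (double thymidine block for G1/S, nocodazole release for mitosis), protein amounts in NP-40 versus SDS lysates quantified by mass spectrometry, three biological replicates.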
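For solubility in G1/S (NP-40 vs SDS abundance) in this document: HeLa Kyoto cells arrested at G1/S by double thymidine block, proteins quantified by TMT10plex mass spectrometry in mild NP-40 versus SDS extracts, three biological replicates.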
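For thermal stability score vs G1/S (z-score of summed log2 fold changes over temperatures) in this document: synchronized HeLa Kyoto cells, proteins quantified by TMT10plex mass spectrometry, three biological replicates, mitosis taken 0.5 h after nocodazole release, G1/S directly after double thymidine block.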

Row | Substance | thermal stability score (HeLa Kyoto [1]; [5]) | thermal stability score (HeLa Kyoto [1]; cell cycle stage: mitosis) | solubility change mitosis (log2) (HeLa Kyoto [2]) | melting temperature (HeLa Kyoto [3]; cell cycle stage: G1/S) [°C] | melting temperature (HeLa Kyoto [3]; cell cycle stage: mitosis) [°C] | solubility in G1/S (log2) (HeLa Kyoto [4])
1 | MQNYKYDKAIVPESKNGGSPALNNNPRRSGSKRVLLICLDLFCLFMAGLPFLIIETSTIKPYHRGFYCNDESIKYPLKTGETINDAVLCAVGIVIAILAIITGEFYRIYYLKKSRSTIQNPYVAALYKQVGCFLFGCAISQSFTDIAKVSIGRLRPHFLSVCNPDFSQINCSEGYIQNYRCRGDDSKVQEARKSFFSGHASFSMYTMLYLVLYLQARFTWRGARLLRPLLQFTLIMMAFYTGLSRVSDHKHHPSDVLAGFAQGALVACCIVFFVSDLFKTKTTLSLPAPAIRKEILSPVDIIDRNNHHNMM [PLPP3] | -1.69 | 5.11 | -0.139 | 57 | 55.7 | -0.0783
2 | ZSWIM8 | 0.66 | 1.55 | -0.0253 | 49.2 | 49 | -0.162
3 | MGSSKKVTLSVLSREQSEGVGARVRRSIGRPELKNLDPFLLFDEFKGGRPGGFPDHPHRGFETVSYLLEGGSMAHEDFCGHTGKMNPGDLQWMTAGRGILHAEMPCSEEPAHGLQLWVNLRSSEKMVEPQYQELKSEEIPKPSKDGVTVAVISGEALGIKSKVYTRTPTLYLDFKLDPGAKHSQPIPKGWTSFIYTISGDVYIGPDDAQQKIEPHHTAVLGEGDSVQVENKDPKRSHFVLIAGEPLREPVIQHGPFVMNTNEEISQAILDFRNAKNGFERAKTWKSKIGN [PIR] | -1.49 | -1.89 | -0.0437 | 51.8 | 51.6 | 0.288
4 | MKSLKSRLRRQDVPGPASSGAAAASAHAADWNKYDDRLMKAAERGDVEKVTSILAKKGVNPGKLDVEGRSVFHVVTSKGNLECLNAILIHGVDITTSDTAGRNALHLAAKYGHALCLQKLLQYNCPTEHADLQGRTALHDAAMADCPSSIQLLCDHGASVNAKDVDGRTPLVLATQMSRPTICQLLIDRGADVNSRDKQNRTALMLGCEYGCRDAVEVLIKNGADISLLDALGHDSSYYARIGDNLDILTLLKTASENTNKGRELWKKGPSLQQRNLTHMQDEVNVKSHQREHQNIQDLEIENEDLKERLRKIQQEQRILLDKVNGLQLQLNEEVMVADDLESEREKLKSLLAAKEKQHEESLRTIEALKNRFKYFESDHLGSGSHFSNRKEDMLLKQGQMYMADSQCTSPGIPAHMQSRSMLRPLELSLPSQTSYSENEILKKELEAMRTFCESAKQDRLKLQNELAHKVAECKALALECERVKEDSDEQIKQLEDALKDVQKRMYESEGKVKQMQTHFLALKEHLTSEAASGNHRLTEELKDQLKDLKVKYEGASAEVGKLRNQIKQNEMIVEEFKRDEGKLIEENKRLQKELSMCEMEREKKGRKVTEMEGQAKELSAKLALSIPAEKFENMKSSLSNEVNEKAKKLVEMEREHEKSLSEIRQLKRELENVKAKLAQHVKPEEHEQVKSRLEQKSGELGKKITELTLKNQTLQKEIEKVYLDNKLLKEQAHNLTIEMKNHYVPLKVSEDMKKSHDAIIDDLNRKLLDVTQKYTEKKLEMEKLLLENDSLSKDVSRLETVFVPPEKHEKEIIALKSNIVELKKQLSELKKKCGEDQEKIHALTSENTNLKKMMSNQYVPVKTHEEVKMTLNDTLAKTNRELLDVKKKFEDINQEFVKIKDKNEILKRNLENTQNQIKAEYISLAEHEAKMSSLSQSMRKVQDSNAEILANYRKGQEEIVTLHAEIKAQKKELDTIQECIKVKYAPIVSFEECERKFKATEKELKDQLSEQTQKYSVSEEEVKKNKQENDKLKKEIFTLQKDLRDKTVLIEKSHEMERALSRKTDELNKQLKDLSQKYTEVKNVKEKLVEENAKQTSEILAVQNLLQKQHVPLEQVEALKKSLNGTIENLKEELKSMQRCYEKEQQTVTKLHQLLENQKNSSVPLAEHLQIKEAFEKEVGIIKASLREKEEESQNKMEEVSKLQSEVQNTKQALKKLETREVVDLSKYKATKSDLETQISSLNEKLANLNRKYEEVCEEVLHAKKKEISAKDEKELLHFSIEQEIKDQKERCDKSLTTITELQRRIQESAKQIEAKDNKITELLNDVERLKQALNGLSQLTYTSGNPTKRQSQLIDTLQHQVKSLEQQLADADRQHQEVIAIYRTHLLSAAQGHMDEDVQEALLQIIQMRQGLVC [UACA] | 1.19 | 0.0635 | -0.0155 | 48.5 | 50.6 | 0.233
